Experimental data taken from US6551840B2, “Method of screening TGF-β-inhibiting substances” (Chugai Seiyaku Kabushiki Kaisha, priority 1997, dated 2003).

T1: TAK1 (Mus musculus, UniProt Q62073)
T1 construct: A gene encoding a full-length TAK1 was prepared by digesting yeast 2-hybrid expression plasmid pBTMHu11F; expressed in transfected cells; host or cells: Saccharomyces cerevisiae strain L40
T1 sequence (Q62073 1-579): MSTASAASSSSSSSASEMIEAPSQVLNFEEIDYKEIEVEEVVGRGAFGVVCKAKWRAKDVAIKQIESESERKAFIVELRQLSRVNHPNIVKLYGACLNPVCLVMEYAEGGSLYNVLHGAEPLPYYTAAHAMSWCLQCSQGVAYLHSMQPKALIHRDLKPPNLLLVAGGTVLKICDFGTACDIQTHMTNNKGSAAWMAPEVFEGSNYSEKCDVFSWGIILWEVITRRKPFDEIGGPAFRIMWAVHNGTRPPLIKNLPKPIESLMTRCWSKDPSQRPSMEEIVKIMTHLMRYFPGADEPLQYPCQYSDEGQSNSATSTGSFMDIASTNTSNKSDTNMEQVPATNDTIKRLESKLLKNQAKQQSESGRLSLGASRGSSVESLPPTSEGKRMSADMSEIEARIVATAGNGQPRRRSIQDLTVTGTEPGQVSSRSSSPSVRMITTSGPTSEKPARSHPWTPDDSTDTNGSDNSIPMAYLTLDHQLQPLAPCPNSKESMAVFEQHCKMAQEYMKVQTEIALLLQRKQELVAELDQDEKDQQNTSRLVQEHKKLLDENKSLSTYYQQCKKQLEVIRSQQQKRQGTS

B1: TAB1C68: 68 amino acid residues of the carboxy terminal of the TAB1 polypeptide (pGAD-TAB1) (protein)
chain: QSPTLTLQSTNTHTQSSSSSSDGGLFRSRPAHSLPPGEDGRVEPYVDFAEFYRLWSVDHGEQSVVTAP
modifications: GAL4 activation domain fusion

These molecules were tested against T1, TAK1 (assay: Yeast 2-hybrid method, β-galactosidase activity: binding ability of TAB1 deletion mutants to TAK1). Details: yeast L40 co-transformed with TAK1 2-hybrid expression plasmid; GAL4 activation domain fusion; measured three times.
Assay type: cell-based
From the text: In order to evaluate each TAB1 deletion mutant constructed in Example 10, a yeast 2-hybrid expression vector of each TAB1 deletion mutant and a yeast 2-hybrid expression vector pBTMHu11F (Shibuya H. et al., Science (1996) 272, 1179-1182) that expresses TAK1 were co-transformed into a yeast strain L40 (Shibuya H. et al., Science (1996) 272, 1179-1182). […] each of a TAB1 deletion mutant expression vector (pGAD-TAB1C45 to pGAD-TAB1C45 in Working Example 10-1 and pGAD-TAB1C45D14 to pGAD-TAB1C45D25 in Working Example 10-2) or pGAD-TAB1 (Shibuya H. et al., Science (1996) 272, 1179-1182) as a control and pBTMHu11F were introduced into the L40 strain according to the instructions (MATCHMAKER™ Two-Hybrid System, manufactured by CLONTECH), and were incubated on a selection agar medium SD-ULW (glucose 20 g, agar (manufactured by DIFCO) 20 g, Yeast Nitrogen Base w/o amino acids (manufactured by DIFCO) 6.7 g, adenine 100 mg, isoleucine 30 mg, valine 150 mg, arginine 20 mg, lysine 30 mg, methionine 20 mg, phenylalanine 50 mg, threonine 200 mg, tyrosine 30 mg, histidine 100 mg-per liter of medium) at 30° C. for 3 days to obtain each transformant.
In order to evaluate the binding ability to TAK1 of each TAB1 deletion mutant constructed in Example 10, activity was determined by the yeast 2-hybrid method. Since a reporter gene lacZ having the LexA binding sequence upstream thereof has been integrated on the chromosome of the yeast strain L40, the binding ability to TAK1 of each TAB1 deletion mutant can be evaluated in relative terms by measuring the activity of β-galactosidase that is a reporter gene product.
(§1) The β-galactosidase activity of each transformant obtained in Example 11 was determined according to the instructions (MATCHMAKER™ Two-Hybrid System, manufactured by CLONTECH), and the activity was calculated using Miller Unit (Miller, J. H. (1972) Experiments in Molecular Genetics, Cold Spring Harbor Laboratory, Cold Spring Harbor, N.Y.).
In FIG. 11, the β-galactosidase activity of each TAB1 deletion mutant and the yeast L40 transformed by the yeast 2-hybrid expression plasmid of TAK1 was expressed in terms of Miller Units. Measurement was carried out three times and the mean+/−SD is shown. The value indicates a ratio based on the β-galactosidase activity of the yeast L40 transformed by TAB1C68 and the yeast 2-hybrid expression plasmid of TAK1.
as §1, with “Units” for “Unit”
In FIG. 12, the β-galactosidase activity of the yeast L40 transformed by each TAB1 deletion mutant and the yeast 2-hybrid expression plasmid of TAK1 was expressed in terms of Miller Units. Measurement was carried out three times and the mean+/−SD is shown. The value indicates a ratio based on the β-galactosidase activity of the yeast L40 transformed by the TAB1C68 and yeast 2-hybrid expression plasmid of TAK1.
First, binding between the 68, 45, 40, 35, 30 and 25 amino acid regions of the carboxy terminal of TAB1 and TAK1 was evaluated by the yeast 2-hybrid method mentioned above.

Molecule	specific activity: β-galactosidase activity as ratio to TAB1C68
TAB1C45 Δ23: lacks 23 amino acids from the carboxy terminal of the 45 amino acid carboxy terminal portion of TAB1 (GLFRSRPAHSLPPGEDGRVEPY; UniProt Q15750 460-481, looked up, fragment)	0.00
TAB1C21: polypeptide comprising 21 amino acids of the carboxy terminal of TAB1 (FAEFYRLWSVDHGEQSVVTAP; left off: large carriers)	0.03
TAB1C45 Δ19: lacks 19 amino acids from the carboxy terminal of the 45 amino acid carboxy terminal portion of TAB1 (GLFRSRPAHSLPPGEDGRVEPYVDFA; UniProt Q15750 460-485, looked up, fragment)	0.13
TAB1C45 Δ25: lacks 25 amino acids from the carboxy terminal of the 45 amino acid carboxy terminal portion of TAB1 (GLFRSRPAHSLPPGEDGRVE; UniProt Q15750 460-479, looked up, fragment)	0.01
TAB1C45 Δ21: lacks 21 amino acids from the carboxy terminal of the 45 amino acid carboxy terminal portion of TAB1 (GLFRSRPAHSLPPGEDGRVEPYVD; UniProt Q15750 460-483, looked up, fragment)	0.01
TAB1C22: polypeptide comprising 22 amino acids of the carboxy terminal of TAB1 (DFAEFYRLWSVDHGEQSVVTAP; left off: large carriers)	0.03
TAB1C45 Δ24: lacks 24 amino acids from the carboxy terminal of the 45 amino acid carboxy terminal portion of TAB1 (GLFRSRPAHSLPPGEDGRVEP; UniProt Q15750 460-480, looked up, fragment)	0.02
TAB1C23: polypeptide comprising 23 amino acids of the carboxy terminal of TAB1 (VDFAEFYRLWSVDHGEQSVVTAP; left off: large carriers)	0.05
TAB1C45 Δ20: lacks 20 amino acids from the carboxy terminal of the 45 amino acid carboxy terminal portion of TAB1 (GLFRSRPAHSLPPGEDGRVEPYVDF; UniProt Q15750 460-484, looked up, fragment)	0.11
TAB1C24: polypeptide comprising 24 amino acids of the carboxy terminal of TAB1 (YVDFAEFYRLWSVDHGEQSVVTAP; left off: large carriers)	0.35
TAB1C20: polypeptide comprising 20 amino acids of the carboxy terminal of TAB1 (AEFYRLWSVDHGEQSVVTAP; left off: large carriers)	0.03
TAB1C45 Δ22: lacks 22 amino acids from the carboxy terminal of the 45 amino acid carboxy terminal portion of TAB1 (GLFRSRPAHSLPPGEDGRVEPYV; UniProt Q15750 460-482, looked up, fragment)	0.02

These molecules were tested on TAK1 (assay: Growth of yeast SY1984-P on plate without histidine: ability of TAB1 deletion mutants to activate TAK1). Details: growth of yeast SY1984-P with pNV11-HU11 on SC-His plate, 30° C.
Assay type: cell-based
From the text: The region of TAB1 required to induce the kinase activity after binding to TAK1 was identified using TAB1 deletion mutants.
Expression vectors for the 40, 35 and 30 amino acid regions (FIG. 14) in the carboxy terminal of TAB1 were constructed as described below. Thus, genes encoding 40, 35 and 30 amino acid regions respectively in the carboxy terminal of TAB1 were amplified by the PCR method as described above, digested with restriction enzymes XhoI and EcoRI, and inserted to the GAL4 transcription activated domain expression vector pGAD10 to construct pGAD-TAB1C40, pGAD-TAB1C35 and pGAD-TAB1C30, respectively. Furthermore, expression vectors for the TAB1 deletion mutants (FIG. 14) comprising 68, 45 and 25 amino acid regions in the carboxy terminal of TAB1 used were pGAD-TAB1, pGAD-TAB1C45 and pGAD-TAB1C25.
Subsequently, it was investigated whether each TAB1 deletion mutant can induce the kinase activity of TAK1 using the method described in Japanese Unexamined Patent Publication (Kokai) 9(1997)-163990. Thus, the above TAB1 deletion mutant expression vector and TAK1 expression vector pNV11-HU11 (Yamaguchi, K. et al., Science (1995) 270, 2008-2011) were introduced into Saccharomyces cereviceae SY1984-P strain (his3Δ, stellΔ, FUS1p::HIS3, STE7^P368) to obtain deletion mutants. […] These transformants were plated onto a SC-His (glucose 20 g, agar (manufactured by DIFCO) 20 g, Yeast Nitrogen Base w/o amino acids (manufactured by DIFCO) 6.7 g, adenine 100 mg, isoleucine 30 mg, valine 150 mg, arginine 20 mg, lysine 30 mg, methionine 20 mg, phenylalanine 50 mg, threonine 200 mg, tyrosine 30 mg per liter of medium) plate containing no histidine, incubated at 30° C., and the growth of yeast transformed with each expression vector was confirmed in order to evaluate the ability of each TAB1deletion mutant to activate TAK1.

Molecule	ability to activate TAK1
TAB1C35: 35 amino acid region in the carboxy terminal of TAB1 (LPPGEDGRVEPYVDFAEFYRLWSVDHGEQSVVTAP; left off: large carriers)	observed
TAB1C40: 40 amino acid region in the carboxy terminal of TAB1 (RPAHSLPPGEDGRVEPYVDFAEFYRLWSVDHGEQSVVTAP; left off: large carriers)	observed
TAB1C45: polypeptide comprising 45 amino acids of the carboxy terminal of TAB1 (GLFRSRPAHSLPPGEDGRVEPYVDFAEFYRLWSVDHGEQSVVTAP; left off: large carriers)	observed
TAB1C25: polypeptide comprising 25 amino acids of the carboxy terminal of TAB1 (PYVDFAEFYRLWSVDHGEQSVVTAP; left off: large carriers)	not
TAB1C30: 30 amino acid region in the carboxy terminal of TAB1 (DGRVEPYVDFAEFYRLWSVDHGEQSVVTAP; left off: large carriers)	observed
B1	observed
